In IntAct's records for PubMed 34237462:

B1: Anterior gradient protein 2 homolog (Homo sapiens), O95994 (parent)
chain: MEKIPVSAFLLLVALSYTLARDTTVKPGAKKDTKDSRPKLPQTLSRGWGDQLIWTQTYEEALYKSKTSNKPLMIIHHLDECPHSQALKKVFAENKEIQKLAEQFVLLNLVYETTDKHLSPDGQYVPRIMFVDPSLTVRADITGRYSNRLYAYEPADTALLLDNMKKALKLLKTEL

Variants of: B1
Conditions: with muc2_human MUC2, Q02817
With H117Y the “effect of a mutation on the interaction” value was “decreasing interaction strength”.
